Results taken from patent US20100129373A1.

How the values were obtained:
[1] = target: recombinant mouse VEGF (493-MV, R&D systems, USA) (mouse) (UniProt Q00731); assay: ELISA, Ab 25 nM
[2] = target: recombinant mouse VEGF (493-MV, R&D systems, USA) (mouse) (UniProt Q00731); assay: ELISA, Ab 50 nM
[3] = target: recombinant mouse VEGF (493-MV, R&D systems, USA) (mouse) (UniProt Q00731); assay: ELISA, Ab 0.10 nM
[4] = target: recombinant mouse VEGF (493-MV, R&D systems, USA) (mouse) (UniProt Q00731); assay: ELISA, Ab 0.20 nM
[5] = target: recombinant mouse VEGF (493-MV, R&D systems, USA) (mouse) (UniProt Q00731); assay: ELISA, Ab 0.39 nM
[6] = target: recombinant mouse VEGF (493-MV, R&D systems, USA) (mouse) (UniProt Q00731); assay: ELISA, Ab 0.78 nM
[7] = target: recombinant mouse VEGF (493-MV, R&D systems, USA) (mouse) (UniProt Q00731); assay: ELISA, Ab 1.56 nM
[8] = target: recombinant mouse VEGF (493-MV, R&D systems, USA) (mouse) (UniProt Q00731); assay: ELISA, Ab 12.5 nM
[9] = target: recombinant mouse VEGF (493-MV, R&D systems, USA) (mouse) (UniProt Q00731); assay: ELISA, Ab 3.13 nM
[10] = target: recombinant mouse VEGF (493-MV, R&D systems, USA) (mouse) (UniProt Q00731); assay: ELISA, Ab 6.25 nM
[11] = target: recombinant mouse VEGF (493-MV, R&D systems, USA) (mouse) (UniProt Q00731); assay: ELISA, Ab 0.049 nM
[12] = target: recombinant human VEGF (293-VE, R&D systems, USA) (human) (UniProt P15692); assay: ELISA, control IgG 50 nM
[13] = target: T1, recombinant mouse VEGF (493-MV, R&D systems, USA) (mouse) (UniProt Q00731); assay: ELISA, control IgG 50 nM
T1 sequence (looked up): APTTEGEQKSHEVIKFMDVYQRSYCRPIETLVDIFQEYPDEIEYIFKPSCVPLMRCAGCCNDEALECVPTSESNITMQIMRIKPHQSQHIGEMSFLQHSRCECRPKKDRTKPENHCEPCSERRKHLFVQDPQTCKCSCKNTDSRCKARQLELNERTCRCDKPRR

Row | Substance | OD490 [1] | OD490 [2] | OD490 [3] | OD490 [4] | OD490 [5] | OD490 [6] | OD490 [7] | OD490 [8] | OD490 [9] | OD490 [10] | OD490 [11] | OD490 [12] | OD490 [13]
1 | Avastin™ (bevacizumab, Genetech), humanized anti-VEGF monoclonal antibody | 0.107 | 0.695 | 0.147 | 0.0433 | 0.0569 | 0.0438 | 0.0455 | 0.104 | 0.0489 | 0.0424 | 0.0687 | – | –
2 | normal human IgG (antibody) | – | – | – | – | – | – | – | – | – | – | – | 0.052 | 0.0467
